PMC10837352

Target: N‐terminal TadA‐8e (split site R74) fused to nMagHigh1 (UniProt P68398)

- adenine base editing at the ABES4 and ABES6 targets in E. coli DH10B, level 2‐BLABE (nMagHigh1‐pMag), in the absence of blue light, Sanger sequencing: 3%
- adenine base editing at the ABES4 and ABES6 targets in E. coli DH10B, level 2‐BLABE (nMagHigh1‐pMag), in the presence of blue light (10 mW cm^−2, 6 h), Sanger sequencing: 90%
Substance: pMag fused to C‐terminal TadA‐8e (split site R74) and nCas9 (from UniProt P68398 75-167)
